According to publication PMC10545747 (2023):
Blank lines part the entries; values can stand above or below the binder they belong to.

What was measured:
[1] = molecular target: T1, XQ2 (macrocyclic (cyclic) peptide); test: MST; 2 M (NH4)2SO4
[2] = molecular target: T1, XQ2; test: SPR

- Kd [1]: 1.8 µM
B1: fluorescent labeled hcGAS (enzyme)
chain: MQPWHGKAMQRASEAGATAPKASARNARGAPMDPTESPAAPEAALPKAGKFGPARKSGSRQKKSAPDTQERPPVRATGARAKKAPQRAQDTQPSDATSAPGAEGLEPPAAREPALSRAGSCRQRGARCSTKPRPPPGPWDVPSPGLPVSAPILVRRDAAPGASKLRAVLEKLKLSRDDISTAAGMVKGVVDHLLLRLKCDSAFRGVGLLNTGSYYEHVKISAPNEFDVMFKLEVPRIQLEEYSNTRAYYFVKFKRNPKENPLSQFLEGEILSASKMLSKFRKIIKEEINDIKDTDVIMKRKRGGSPAVTLLISEKISVDITLALESKSSWPASTQEGLRIQNWLSAKVRKQLRLKPFYLVPKHAKEGNGFQEETWRLSFSHIEKEILNNHGKSKTCCENKEEKCCRKDCLKLMKYLLEQLKERFKDKKHLDKFSSYHVKTAFFHVCTQNPQDSQWDRKDLGLCFDNCVTYFLQCLRTEKLENYFIPEFNLFSSNLIDKRSKEFLTKQIEYERNNEFPVFDEF
modifications: fluorescent label (dye and site not stated)

- Kd [2]: 86.5 µM
B2: N-terminally truncated human cGAS (hcGAS-ΔN, residues 147–522) (domain or fragment)
chain: PVSAPILVRRDAAPGASKLRAVLEKLKLSRDDISTAAGMVKGVVDHLLLRLKCDSAFRGVGLLNTGSYYEHVKISAPNEFDVMFKLEVPRIQLEEYSNTRAYYFVKFKRNPKENPLSQFLEGEILSASKMLSKFRKIIKEEINDIKDTDVIMKRKRGGSPAVTLLISEKISVDITLALESKSSWPASTQEGLRIQNWLSAKVRKQLRLKPFYLVPKHAKEGNGFQEETWRLSFSHIEKEILNNHGKSKTCCENKEEKCCRKDCLKLMKYLLEQLKERFKDKKHLDKFSSYHVKTAFFHVCTQNPQDSQWDRKDLGLCFDNCVTYFLQCLRTEKLENYFIPEFNLFSSNLIDKRSKEFLTKQIEYERNNEFPVFDEF
